Data reported in patent publication US20030175888.

Experiments:
LnmP PCP (holo-form) = biological target: T1, LnmP PCP (holo-form)
T1 chain: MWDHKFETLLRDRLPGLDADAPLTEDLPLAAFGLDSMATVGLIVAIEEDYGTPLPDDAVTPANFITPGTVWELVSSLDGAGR

B1: LnmG (protein)
chain: MVALVFPGQGSQRKGMGADLFARFPDLTRQADTVLGHSVEELCRSSGDGRLDRTEYAQPALFVVSALSYLARDPGLPQPTLLAGHSLGEYGALFAAGCFDFATGVRLVRERGALMGRAQGGGMLAVLGVDGDEVQALLAGTGARQVDVANYNTPTQTVLSGPLDELRMVSAALGQRPGVRCVPVRVSAAFHSRHMRPAAQEFATFLTGFSFADPHRTVISSVTARPYGAGQVAELLSRQIESPVRWSETMAYLRERGTTELEEMGPGKVLTGLWKQGRADGAKARAVAPAPVAVVAGVPAAAAARAPASPAPVAARAATAAPARPSDPAPPAPRTAPSPASPVPPASVSRGQRAEELGSAEFRQDYGIRYAYLAGAMFRGIASAELVIRMGRAGLMGFFGAGGLGLDKVESALVRIKDALGPDGRYGMNLLHSIDDPAYEHAVVDLCLKHGVHDVEAAGFTQLTPAVVQFRFSGAHRDAAGRAVAVRRVLAKVSRPEVAAAFMAPAPAAILRRLTADGRLTPQEAEIAAELPVGQDICVEADSGGHTDGGAALTLLPSMIRHRDAAMARHGYGRRIRIGAAGGIGAPEAVAAAFVLGADFVLTGSVNQCSPEAGTSDAVKDILAGLDVQDTAYAPAGDMFEIGARVQVVRKGTLFAARGNKLYQLYRSHDSWESIDAGTRRSVEETYFKRPFAEVWEETRAYHLGRGRDAEIEKADRLPKHRMALAFRWYFARSVRWGLEGEPTQKVNYQIQCGPAIGAFNHVVRGTGLEDWRHRHVDLIAEHLMTGAADVLARR
LnmP PCP (holo-form)
  loading of the [2-14C]malonyl group onto the holo-PCP (SDS-PAGE and phosphor imaging, 5 min): no loading was observed for the LnmP PCP (FIG. 13C, lane 9)
LnmJ-ACP4 (holo-form)
  loading of the [2-14C]malonyl group onto the holo-ACP (SDS-PAGE and phosphor imaging, 5 min): six of the seven ACPs were efficiently loaded with the malonyl group (FIG. 13C, lanes 2-4 and 6-8)
apo-LnmJ-(DH-ACP-KR)
  loading of the [2-14C]malonyl group onto the tridomain protein (9% SDS-PAGE and phosphor imaging): no loading was observed with the apo-LnmJ-(DH-ACP-KR) protein (lane 2)
LnmJ-ACP6-1 (holo-form)
  loading of the [2-14C]malonyl group onto the holo-ACP (SDS-PAGE and phosphor imaging, 5 min): with ACP6-1 being loaded less efficiently (FIG. 13C, lane 5)
LnmJ-ACP8 (holo-form)
  loading of the [2-14C]malonyl group onto the holo-ACP (SDS-PAGE and phosphor imaging, 5 min): six of the seven ACPs were efficiently loaded with the malonyl group (FIG. 13C, lanes 2-4 and 6-8)
LnmJ-ACP6-2 (holo-form)
  loading of the [2-14C]malonyl group onto the holo-ACP (SDS-PAGE and phosphor imaging, 5 min): six of the seven ACPs were efficiently loaded with the malonyl group (FIG. 13C, lanes 2-4 and 6-8)
  malonyl loading of the two ACPs of PKS module 6 in vitro: LnmG prefers ACP6-2 in vitro
LnmJ-ACP5 (holo-form)
  loading of the [2-14C]malonyl group onto the holo-ACP (SDS-PAGE and phosphor imaging, 5 min): six of the seven ACPs were efficiently loaded with the malonyl group (FIG. 13C, lanes 2-4 and 6-8)
LnmI-ACP3 (holo-form)
  loading of the [2-14C]malonyl group onto the holo-ACP (SDS-PAGE and phosphor imaging, 5 min): six of the seven ACPs were efficiently loaded with the malonyl group (FIG. 13C, lanes 2-4 and 6-8)
LnmJ-ACP7 (holo-form)
  loading of the [2-14C]malonyl group onto the holo-ACP (SDS-PAGE and phosphor imaging, 5 min): six of the seven ACPs were efficiently loaded with the malonyl group (FIG. 13C, lanes 2-4 and 6-8)
holo-LnmJ-(DH-ACP-KR)
  loading of the [2-14C]malonyl group onto the tridomain protein (9% SDS-PAGE and phosphor imaging, 2 to 60 min): LnmG efficiently loaded the malonyl group to holo-LnmJ-(DH-ACP-KR) (lanes 3-6)
